This assay addresses T1, human Gαi subunit (Gαi1) with N-terminal deca-histidine tag (human, UniProt P63096 1-354).
T1 construct: Gαi1 subunit, human; TEV protease-cleavable tag; source: E. coli BL21 (DE3), purified; not shown: His10, N-terminal, kept
Kind of assay: cryo-EM structure; rhodopsin-Gi-Fab16 complex; rhodopsin on 1D4 resin mixed with 10xHis-tagged Gi, light-activated, with apyrase, in LMNG; Ni-NTA; Fab16 added in molar excess (1:1.4); SEC in 20 mM HEPES pH 7.5, 150 mM NaCl; Titan Krios, K2; nominal resolution 4.38 Å. As to conditions: both partners purified.

Data on 1 molecule can be found in paper PMC6629373, “Cryo-EM structure of the rhodopsin-Gαi-βγ complex reveals binding of the rhodopsin C-terminal tail to the gβ subunit” (eLife, 2019).

B1: bovine rhodopsin N2C/M257Y/D282C (stabilized, constitutively active mutant) (receptor, UniProt P02699 1-348, looked up)
chain: MCGTEGPNFYVPFSNKTGVVRSPFEAPQYYLAEPWQFSMLAAYMFLLIMLGFPINFLTLYVTVQHKKLRTPLNYILLNLAVADLFMVFGGFTTTLYTSLHGYFVFGPTGCNLEGFFATLGGEIALWSLVVLAIERYVVVCKPMSNFRFGENHAIMGVAFTWVMALACAAPPLVGWSRYIPEGMQCSCGIDYYTPHEETNNESFVIYMFVVHFIIPLIVIFFCYGQLVFTVKEAAAQQQESATTQKAEKEVTRMVIIYVIAFLICWLPYAGVAFYIFTHQGSCFGPIFMTIPAFFAKTSAVYNPVIYIMMNKQFRNCMVTTLCCGKNPLGDDEASTTVSKTETSQVAPA
modifications: palmitoylation of Cys residues at positions 322 and 323; reconstituted with 9-cis or 11-cis retinal and light-activated
notes: rhodopsin, bovine, mutant N2C/M257Y/D282C; Residues 324-335 of the C-tail were modelled in the map; also called the receptor
In the case of B1, the binding result is given as “binds”.
